{"source": "paper PMC10687467", "origin": "cited, not measured here", "key": {"[1]": {"target": "LDL receptor (Homo sapiens) (UniProt P01130)"}, "LRP-2 (Homo sapiens)": {"target": "LRP-2 (Homo sapiens) (UniProt P98164)", "sequence (P98164 26-4423)": "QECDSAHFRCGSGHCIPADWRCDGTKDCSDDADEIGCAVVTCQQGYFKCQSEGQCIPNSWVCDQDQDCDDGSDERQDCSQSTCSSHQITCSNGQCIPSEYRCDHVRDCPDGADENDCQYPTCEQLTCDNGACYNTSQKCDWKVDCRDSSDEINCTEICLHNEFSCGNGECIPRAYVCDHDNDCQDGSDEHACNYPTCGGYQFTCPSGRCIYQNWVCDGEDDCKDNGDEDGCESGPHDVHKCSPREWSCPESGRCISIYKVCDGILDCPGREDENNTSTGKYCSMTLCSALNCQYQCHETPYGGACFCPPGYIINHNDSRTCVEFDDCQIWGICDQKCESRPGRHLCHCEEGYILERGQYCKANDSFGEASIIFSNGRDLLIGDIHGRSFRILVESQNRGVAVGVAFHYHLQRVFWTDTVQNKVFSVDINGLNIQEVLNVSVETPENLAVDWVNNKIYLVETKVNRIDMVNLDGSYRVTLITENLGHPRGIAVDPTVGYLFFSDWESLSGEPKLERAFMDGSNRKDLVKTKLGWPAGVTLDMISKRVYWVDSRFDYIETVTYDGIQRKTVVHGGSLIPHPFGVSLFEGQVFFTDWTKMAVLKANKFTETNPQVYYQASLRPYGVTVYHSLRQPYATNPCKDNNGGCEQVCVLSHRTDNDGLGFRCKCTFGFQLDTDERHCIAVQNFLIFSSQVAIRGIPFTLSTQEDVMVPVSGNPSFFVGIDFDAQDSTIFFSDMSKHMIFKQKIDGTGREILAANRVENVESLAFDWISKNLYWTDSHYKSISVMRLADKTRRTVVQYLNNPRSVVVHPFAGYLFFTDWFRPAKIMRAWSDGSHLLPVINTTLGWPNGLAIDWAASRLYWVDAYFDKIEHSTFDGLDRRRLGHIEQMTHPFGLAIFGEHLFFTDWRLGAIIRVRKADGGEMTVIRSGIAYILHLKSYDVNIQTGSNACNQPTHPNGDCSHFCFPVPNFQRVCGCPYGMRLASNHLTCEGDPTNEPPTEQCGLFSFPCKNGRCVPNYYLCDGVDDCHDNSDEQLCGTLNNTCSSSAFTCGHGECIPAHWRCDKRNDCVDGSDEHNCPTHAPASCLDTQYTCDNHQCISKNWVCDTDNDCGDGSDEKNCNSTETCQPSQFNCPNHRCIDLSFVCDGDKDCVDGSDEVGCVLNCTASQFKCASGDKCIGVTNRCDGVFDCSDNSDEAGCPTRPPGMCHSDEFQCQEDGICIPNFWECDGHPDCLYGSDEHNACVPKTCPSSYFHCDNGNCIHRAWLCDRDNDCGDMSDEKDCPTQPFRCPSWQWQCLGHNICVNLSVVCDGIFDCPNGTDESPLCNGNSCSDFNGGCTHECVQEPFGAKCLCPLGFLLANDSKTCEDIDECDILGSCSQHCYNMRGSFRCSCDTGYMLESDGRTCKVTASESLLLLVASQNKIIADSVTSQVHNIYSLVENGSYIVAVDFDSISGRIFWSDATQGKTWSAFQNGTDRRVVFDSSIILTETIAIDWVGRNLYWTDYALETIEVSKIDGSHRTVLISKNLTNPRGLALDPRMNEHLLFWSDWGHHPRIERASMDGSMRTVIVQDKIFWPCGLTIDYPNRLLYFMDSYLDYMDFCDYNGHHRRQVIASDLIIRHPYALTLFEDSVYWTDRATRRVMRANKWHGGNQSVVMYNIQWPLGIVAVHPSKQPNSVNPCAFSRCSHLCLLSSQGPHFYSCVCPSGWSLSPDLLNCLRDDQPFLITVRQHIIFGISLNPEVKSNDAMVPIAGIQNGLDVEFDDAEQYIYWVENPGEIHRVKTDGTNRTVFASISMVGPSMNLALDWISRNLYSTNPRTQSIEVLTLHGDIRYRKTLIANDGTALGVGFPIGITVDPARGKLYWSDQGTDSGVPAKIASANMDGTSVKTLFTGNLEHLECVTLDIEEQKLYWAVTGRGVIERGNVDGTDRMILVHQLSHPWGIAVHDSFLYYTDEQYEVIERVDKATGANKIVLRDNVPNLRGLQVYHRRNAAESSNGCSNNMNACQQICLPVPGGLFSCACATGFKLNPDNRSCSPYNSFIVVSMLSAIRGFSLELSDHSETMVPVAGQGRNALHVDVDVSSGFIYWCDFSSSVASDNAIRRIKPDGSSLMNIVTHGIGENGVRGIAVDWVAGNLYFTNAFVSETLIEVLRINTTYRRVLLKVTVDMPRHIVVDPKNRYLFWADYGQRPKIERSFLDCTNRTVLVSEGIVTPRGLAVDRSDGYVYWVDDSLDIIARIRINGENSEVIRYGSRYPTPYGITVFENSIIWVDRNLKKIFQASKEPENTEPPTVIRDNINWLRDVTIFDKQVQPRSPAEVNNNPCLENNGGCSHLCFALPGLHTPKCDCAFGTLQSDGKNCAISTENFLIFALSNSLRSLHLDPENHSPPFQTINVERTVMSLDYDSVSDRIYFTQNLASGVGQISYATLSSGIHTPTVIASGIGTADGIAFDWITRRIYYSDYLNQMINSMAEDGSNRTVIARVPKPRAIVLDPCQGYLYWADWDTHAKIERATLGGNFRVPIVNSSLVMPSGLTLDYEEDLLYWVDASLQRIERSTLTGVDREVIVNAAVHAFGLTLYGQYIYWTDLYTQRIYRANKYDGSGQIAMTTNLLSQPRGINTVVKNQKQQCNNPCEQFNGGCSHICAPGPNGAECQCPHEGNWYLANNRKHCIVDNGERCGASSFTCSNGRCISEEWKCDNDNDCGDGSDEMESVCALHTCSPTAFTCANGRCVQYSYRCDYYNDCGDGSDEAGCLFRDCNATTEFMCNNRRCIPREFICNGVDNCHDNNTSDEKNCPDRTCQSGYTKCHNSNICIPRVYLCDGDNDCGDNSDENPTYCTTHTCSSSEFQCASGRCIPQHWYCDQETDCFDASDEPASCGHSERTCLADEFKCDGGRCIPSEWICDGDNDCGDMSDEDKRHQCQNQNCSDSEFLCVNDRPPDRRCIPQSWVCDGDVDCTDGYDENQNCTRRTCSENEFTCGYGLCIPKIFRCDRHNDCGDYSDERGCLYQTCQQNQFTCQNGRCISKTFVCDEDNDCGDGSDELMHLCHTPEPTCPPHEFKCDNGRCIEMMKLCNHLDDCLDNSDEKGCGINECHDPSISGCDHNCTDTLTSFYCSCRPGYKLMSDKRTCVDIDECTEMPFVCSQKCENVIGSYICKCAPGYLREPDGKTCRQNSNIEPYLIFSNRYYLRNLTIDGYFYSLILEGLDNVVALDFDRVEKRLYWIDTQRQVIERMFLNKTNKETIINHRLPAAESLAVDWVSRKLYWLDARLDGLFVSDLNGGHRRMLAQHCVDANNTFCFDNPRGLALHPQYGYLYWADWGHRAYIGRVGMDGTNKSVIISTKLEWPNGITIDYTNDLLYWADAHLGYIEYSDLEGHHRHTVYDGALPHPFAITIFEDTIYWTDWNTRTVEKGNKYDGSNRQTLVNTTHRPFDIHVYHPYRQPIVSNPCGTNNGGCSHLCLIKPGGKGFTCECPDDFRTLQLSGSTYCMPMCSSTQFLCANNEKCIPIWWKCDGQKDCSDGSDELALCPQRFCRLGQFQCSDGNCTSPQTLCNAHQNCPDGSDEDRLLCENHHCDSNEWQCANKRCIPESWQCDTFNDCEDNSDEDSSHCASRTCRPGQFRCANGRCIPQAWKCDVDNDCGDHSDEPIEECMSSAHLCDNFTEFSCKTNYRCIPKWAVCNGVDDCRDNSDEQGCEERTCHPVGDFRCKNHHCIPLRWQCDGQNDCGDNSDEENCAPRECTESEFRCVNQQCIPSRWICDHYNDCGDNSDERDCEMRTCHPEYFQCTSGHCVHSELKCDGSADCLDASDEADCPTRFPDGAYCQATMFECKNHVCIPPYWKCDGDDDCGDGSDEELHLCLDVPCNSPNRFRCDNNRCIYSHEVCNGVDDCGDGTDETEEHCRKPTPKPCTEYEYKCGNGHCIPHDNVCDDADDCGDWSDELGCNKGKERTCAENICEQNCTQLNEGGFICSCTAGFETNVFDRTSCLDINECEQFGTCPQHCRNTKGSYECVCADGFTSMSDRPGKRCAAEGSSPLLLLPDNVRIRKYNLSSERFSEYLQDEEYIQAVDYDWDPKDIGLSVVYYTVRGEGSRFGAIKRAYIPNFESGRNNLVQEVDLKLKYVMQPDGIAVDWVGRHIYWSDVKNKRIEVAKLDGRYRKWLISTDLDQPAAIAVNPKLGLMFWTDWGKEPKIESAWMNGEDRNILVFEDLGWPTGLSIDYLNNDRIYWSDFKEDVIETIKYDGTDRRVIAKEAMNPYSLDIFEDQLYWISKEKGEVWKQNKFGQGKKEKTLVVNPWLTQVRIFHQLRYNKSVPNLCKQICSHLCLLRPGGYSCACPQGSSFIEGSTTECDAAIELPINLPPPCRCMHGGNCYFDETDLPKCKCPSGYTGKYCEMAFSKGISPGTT"}, "ApoER2 (Homo sapiens)": {"target": "ApoER2 (Homo sapiens) (UniProt Q14114)", "sequence (Q14114 33-826)": "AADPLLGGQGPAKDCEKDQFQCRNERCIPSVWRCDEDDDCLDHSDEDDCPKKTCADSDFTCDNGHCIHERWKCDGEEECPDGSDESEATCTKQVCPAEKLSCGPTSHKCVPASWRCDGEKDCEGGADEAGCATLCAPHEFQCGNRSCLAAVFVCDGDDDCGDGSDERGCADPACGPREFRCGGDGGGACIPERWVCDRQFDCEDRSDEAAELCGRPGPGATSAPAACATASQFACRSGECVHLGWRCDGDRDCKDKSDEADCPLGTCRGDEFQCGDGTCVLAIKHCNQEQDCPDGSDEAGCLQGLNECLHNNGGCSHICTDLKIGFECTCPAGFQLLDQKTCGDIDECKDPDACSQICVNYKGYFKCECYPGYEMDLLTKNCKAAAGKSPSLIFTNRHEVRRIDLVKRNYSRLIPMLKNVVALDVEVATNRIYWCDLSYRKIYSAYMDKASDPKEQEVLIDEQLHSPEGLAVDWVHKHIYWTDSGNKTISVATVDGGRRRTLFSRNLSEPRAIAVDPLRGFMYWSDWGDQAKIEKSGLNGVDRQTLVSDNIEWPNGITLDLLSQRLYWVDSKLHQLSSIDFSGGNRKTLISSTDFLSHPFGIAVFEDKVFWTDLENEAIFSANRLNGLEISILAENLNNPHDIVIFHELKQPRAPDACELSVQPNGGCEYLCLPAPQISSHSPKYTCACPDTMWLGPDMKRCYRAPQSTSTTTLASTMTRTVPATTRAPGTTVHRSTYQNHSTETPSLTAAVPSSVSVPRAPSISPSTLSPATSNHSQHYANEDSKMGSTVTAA"}, "[2]": {"target": "VLDL receptor (Homo sapiens) (UniProt P98155)"}}, "note": "pKd: −log10 of the molar value.", "data": [{"substance": "LRPAP1 (from UniProt P30533)", "values": [{"measurement": "pKd", "setting": "[1]", "result": 6.60}, {"measurement": "pKd", "setting": "LRP-2 (Homo sapiens)", "result": 8.10}, {"measurement": "pKd", "setting": "ApoER2 (Homo sapiens)", "result": 8.30}, {"measurement": "pKd", "setting": "[2]", "result": 9.15}]}]}
